Key:
Mos-1 transposase FQ = target: T1, Mos-1 transposase FQ (Drosophila mauritiana, UniProt Q7JQ07 SEQ:1-345, F53Y,Q91R); experiment: cell_activity; 3T46 transposition in E. coli T5 vs 3T3/WT; conditions: chain copies: 2
T1 sequence: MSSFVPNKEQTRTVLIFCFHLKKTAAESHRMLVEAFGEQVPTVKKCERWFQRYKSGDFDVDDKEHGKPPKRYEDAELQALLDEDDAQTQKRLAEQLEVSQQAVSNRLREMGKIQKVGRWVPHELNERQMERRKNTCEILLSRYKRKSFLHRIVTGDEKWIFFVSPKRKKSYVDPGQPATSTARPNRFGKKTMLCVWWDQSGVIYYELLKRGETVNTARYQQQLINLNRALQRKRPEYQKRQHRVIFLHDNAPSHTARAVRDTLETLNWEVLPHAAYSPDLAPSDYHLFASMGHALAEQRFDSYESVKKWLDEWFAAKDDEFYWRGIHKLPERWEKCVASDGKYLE
Description: (§1) Escherichia coli JM109 bacteria were co-transformed with the pBC 3T3 plasmid (comprising a transposition reporter 2 ITR 3′ mariner-like element and the chloramphenicol resistance gene) and with the inducible vector encoding for the transposase (pKK-Tnp or pMal-Tnp) comprising the ampicillin resistance gene. The bacteria selection was performed on ampicillin (100 μg/ml) and chloramphenicol in order to verify the presence of the two plasmids.
(§2) The JM109 bacteria containing both the pBC 3T3 plasmid and the pKK-Tnp (or pMalC2X-Tnp) plasmid were placed in culture for 1 hr at 37° C. in 250 μl of LB. This inoculum was then poured into 5 ml of LB supplemented with 1 mM IPTG. The culture was titrated on LB plates (100 μl of a 1/1000 dilution) and on LB-Tet plates (12.5 μg/ml) (250 μl of the non-diluted culture). The culture induced by IPTG was then cultured for 5 hours at 32° C. (optimal temperature of transposase) under stirring (250 rpm). The bacterial suspension was then titrated on LB plates (100 μl of a 1/250,000 dilution) and on LB-tet plates (100 μl of the undiluted bacterial suspension). The plates were placed at 37° C. overnight. The following day, the colonies were counted on LB and LB-Tet plates, and the transposition frequency (equal to the number of tetracycline bacteria over the number of bacterial per 1 ml of undiluted bacterial suspension) was calculated.
(§3) In order to evaluate the transposition efficiency of systems associating a hyperactive transposase and a pseudo-transposon that is also hyperactive, various combinations were tested in the transposition test in bacteria described in part I, paragraph I-B above.

Mos-1 transposase FETY = target: T2, Mos-1 transposase FETY (Drosophila mauritiana, UniProt Q7JQ07 SEQ:1-345, F53Y,E137K,T216A,Y237C); experiment: as above; conditions: chain copies: 2
T2 sequence: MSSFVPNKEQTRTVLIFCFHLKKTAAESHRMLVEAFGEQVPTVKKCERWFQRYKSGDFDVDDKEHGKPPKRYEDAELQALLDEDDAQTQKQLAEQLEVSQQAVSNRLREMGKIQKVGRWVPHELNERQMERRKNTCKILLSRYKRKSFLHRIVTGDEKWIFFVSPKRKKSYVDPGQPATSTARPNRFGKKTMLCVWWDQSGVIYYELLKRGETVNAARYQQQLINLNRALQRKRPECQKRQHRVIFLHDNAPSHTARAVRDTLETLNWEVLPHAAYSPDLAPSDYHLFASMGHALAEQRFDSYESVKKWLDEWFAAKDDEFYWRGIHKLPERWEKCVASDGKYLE
Description: as §1, §2, §3

Mos-1 transposase FQETY = target: T3, Mos-1 transposase FQETY (Drosophila mauritiana, UniProt Q7JQ07 SEQ:1-345, F53Y,Q91R,E137K,T216A,Y237C); experiment: as above; conditions: chain copies: 2
T3 sequence: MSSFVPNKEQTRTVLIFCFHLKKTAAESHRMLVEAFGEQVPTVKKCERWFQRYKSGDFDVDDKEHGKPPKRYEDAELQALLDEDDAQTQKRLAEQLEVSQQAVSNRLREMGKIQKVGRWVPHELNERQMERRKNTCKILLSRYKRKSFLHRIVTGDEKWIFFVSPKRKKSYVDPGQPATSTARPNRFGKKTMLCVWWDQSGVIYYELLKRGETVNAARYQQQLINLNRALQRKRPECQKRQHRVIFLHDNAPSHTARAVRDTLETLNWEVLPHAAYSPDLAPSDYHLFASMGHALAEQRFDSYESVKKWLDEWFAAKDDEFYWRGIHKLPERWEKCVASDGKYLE
Description: as §1, §2, §3

[1] = target: T4, MBP-Mos-1 transposase (MBP-Tnp) (Drosophila mauritiana, UniProt Q7JQ07 SEQ:1-345); experiment: EMSA; 5 mM MgCl2, 4 C; conditions: tags: N-terminal MBP (pMalC2x); chain copies: 2
T4 sequence: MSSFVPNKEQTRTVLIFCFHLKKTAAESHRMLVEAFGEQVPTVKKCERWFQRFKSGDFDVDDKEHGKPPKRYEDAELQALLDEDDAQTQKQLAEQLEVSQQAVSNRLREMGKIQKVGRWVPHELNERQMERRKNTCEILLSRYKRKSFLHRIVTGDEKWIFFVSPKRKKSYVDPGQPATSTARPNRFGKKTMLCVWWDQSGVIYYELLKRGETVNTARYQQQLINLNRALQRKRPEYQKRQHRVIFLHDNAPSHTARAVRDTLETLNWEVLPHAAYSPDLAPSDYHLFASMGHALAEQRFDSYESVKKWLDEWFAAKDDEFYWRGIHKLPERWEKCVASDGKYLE
Description: The sequences inducing a delay in migration after incubation with Tnp (positive ITRs) were subjected to a further gel retardation with a purified DNA fragment. The ITR/protein complexes were formed in a final volume of 20 μl containing: 40 μg of MBP-Tnp protein, 1 nM of ITR probe, 1 μg of salmon sperm DNA, 2 μl of 50% glycerol, 5 mM of MgCl₂ and 0.5 μM of pRev. The ITRs only were used at a final concentration of 1 nM in a mixture containing 2 μl of 50% glycerol and 17 μl of buffer. The interaction reactions were maintained for 15 minutes at 4° C. before being analysed on polyacrylamide gel.

B1: ITR46 (dsDNA)
DNA 1: TCAGGTGTACAAGTATGAGATGTCGTTT
DNA 2: AAACGACATCTCATACTTGTACACCTGA
activity (Mos-1 transposase FQ): 3.3 fold
activity (Mos-1 transposase FETY): 2 fold
activity (Mos-1 transposase FQETY): 2.3 fold
binding result [1]: binds
